Assay results published in article PMC5458466, “DNA‐induced unfolding of the thyroid hormone receptor α A/B domain through allostery”.

Molecular target: T1, TRα (A/B + DBD) (chicken, UniProt P04625 1-154)
T1 sequence: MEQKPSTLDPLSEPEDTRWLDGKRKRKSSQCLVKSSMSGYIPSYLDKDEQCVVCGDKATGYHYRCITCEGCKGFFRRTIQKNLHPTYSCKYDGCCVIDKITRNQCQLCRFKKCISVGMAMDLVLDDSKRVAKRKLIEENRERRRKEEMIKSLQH
Assay: intrinsic Trp fluorescence quenching; room temperature, 2 uM protein, 5 mM Mg2+; average Kd, two-site fit; 50 mM HEPES pH 7.5, 125 mM NaCl, 5 mM MgCl2, 1 mM TCEP; ITC 25 C, fluorescence room temperature
Details: protein: recombinant; tags: 6xHis (pET15b); chain copies: 2; blunt; 19-mer complementary strands annealed

B1: DR4 TRE (dsDNA)
DNA 1: CCAGGTCATTTCAGGTCAG
DNA 2: CTGACCTGAAATGACCTGG
In the case of B1, the Kd is reported as 2690 ± 220 nM.
